One assay relates to THP sensor (THP4.2). The experiment in a line: Response of the THP reporter plasmid (pThpR) to alkaloids. It is filed as cell-based. The note with it: pThpR reporter fluorescence (FIG. 2b).
Assay [1] is described as follows: LC/MS analysis of enzymatic reactions of OMT variants with norlaudanosoline (extracted ion chromatogram areas). It is filed as cell-based, E. coli. The note with it: for Observed EIC Areas 3OH (302.1387 m/z): 6-O-Methylnorlaudanosoline, retention time 2.85 min; for Observed EIC Areas 3OH (302.1387 m/z) / Observed EIC Areas 1OH (330.1700 m/z) / Observed EIC Areas NOR-4OH (288.1230 m/z) / Observed EIC Areas NRT-2OH (316.1543 m/z) / Observed EIC Areas THP-0OH (344.1856 m/z): strains grown in the presence of 10 uM NOR, single replicates of a biological triplicate; for Observed EIC Areas 1OH (330.1700 m/z): norlaudanine, retention time 3.41 min; for Observed EIC Areas NOR-4OH (288.1230 m/z): norlaudanosoline, retention time 2.46 min; for Observed EIC Areas NRT-2OH (316.1543 m/z): norreticuline, retention time 3.14 min; for Observed EIC Areas THP-0OH (344.1856 m/z): tetrahydropapaverine, retention time 3.58 min. How it is done: (§1) (a) Genetic scheme for O-methyltransferase (OMT) evolution. A plasmid expressing the OMT variant (blue) is co-transformed with a plasmid expressing GFP regulated by a tetrahydropapaverine-responsive biosensor (THP4.1). OMT libraries are plated with norlaudanosoline (NOR) and highly fluorescent colonies are picked, characterized, and the top variant is used for the following round of evolution. (b) Homology structure of the template OMT (GfOMT1) with mutations in evolved variants shown in orange and labelled. The substrate NOR and cofactor S-adenosyl-methionine are shown in pink and green respectively. (c) Fluorescence response of the THP4.1 reporter plasmid cultured with either 0, 10, or 100 uM of (NOR) and an empty plasmid (TAA), GfOMT1 (WT) or evolved OMT variants. (d) Representative ion extracted chromatograms of strains expressing engineered OMT variants, or controls, grown in the presence of 10 uM NOR. All LC-MS chromatograms were selected for the theoretical m/z values and retention times of the respective compounds of interest.
Cells expressing an empty plasmid (TAA) or an OMT variant were cultured in the presence of 10 uM NOR and 1 mg/mL ascorbic acid for 18 hours at 30 C and THP was quantified with LC/MS by fitting to a standard curve (R2=0.9999). Measurements were performed in biological triplicate. […]
The top two rows indicate the ml/z ratio and retention time for compounds of interest (norlaudanosoline (NOR-4OH), 6-O-Methylnorlaudanosoline (3OH), norreticuline (NRT-2OH), norlaudanine (1OH), and tetrahydropapaverine (THP-0OH). All sample measurements were performed in biological triplicate.

Assay [2] can be described thus: pThpR reporter fluorescence of cells expressing a methyltransferase cultured with norlaudanosoline. It is filed as cell-based, E. coli. The note with it: cultured with norlaudanosoline (100 uM, 1 mg/mL ascorbic acid, 18 hours, 30° C., FIG. 3). How it is done:
Cells expressing either an empty plasmid (TAA) or a BIA methyltransferase were co-transformed with pThpR and grown in the presence of 100 uM of norlaudanosoline and 1 mg/mL ascorbic acid for 18 hours at 30° C. and culture fluorescence was subsequently measured. Measurements were performed in biological triplicate.
as §1, with “interest. […]” for “interest.”

Several values for one entry are separate records, joined by “and”; a condition that tells them apart may be missing. Equal values may be shown once.

On to `COc1ccc(C[C@@H]2NCCc3cc(OC)c(O)cc32)cc1O` [norreticuline], for which, in the assay on THP sensor (THP4.2), the “responsiveness of the THP sensor to the alkaloid” value is recorded as “somewhat responsive”.

For the molecule `Oc1ccc(CC2NCCc3cc(O)c(O)cc32)cc1O` (stereo not drawn) [unmethylated substrate, norlaudanosoline], the “responsiveness of the THP sensor to the alkaloid” value in the assay with THP sensor (THP4.2) was “not”.

B1: WT: wild-type O-methyltransferase GfOMT1 from Glaucium flavum, template for evolution (protein)
chain: MGVSDNKPESQEVDIKAQAHLWNIIYGFADSLVLRCAVEIGIADIIKSNNGSISVTELASKLPITNVNSDNLYRVLRYLVHMGILKEVSDSNEVKLYSLQPVATLLLRDAERSMVPIILGMTQKDFMIPWHFMKEGLGNDTTAFEKGMGMTIWQYLEGHPEQSNLFNEGMAGETRLLTKSLIDGCRDTFEGLTSLCDVGGGNGTTIKGIYDAFPQIKCSVYDLPHVIASSPEHPNIERIPGDMFKSVPSAQAILLKLILHDWTDEECVNILIKCREAVPKDTGKVIIVDVALEEESQHELTKTRLILDIDMLVNTGGRERSEDDWEKLLKRAGFRGHKIRHIAAIQSVIEAFP
Consider B1, for which, in assay [1], the “Observed EIC Areas 3OH (302.1387 m/z)” value was 838,007.19 and 678,233.01 and 956,624.78; the “Observed EIC Areas 1OH (330.1700 m/z)” value was found to be 0.00; the “Observed EIC Areas NOR-4OH (288.1230 m/z)” value (shortened to “Observed EIC Areas NOR-4OH”) is 292,886.91 and 183,019.07 and 553,463.54; the “Observed EIC Areas NRT-2OH (316.1543 m/z)” value (from here on “Observed EIC Areas NRT-2OH”) is 5,016,094.31 and 4,455,448.19 and 5,512,157.20. Moreover, in assay [1], the “Observed EIC Areas THP-0OH (344.1856 m/z)” value (“Observed EIC Areas THP-0OH” for short) was 715,848.03 and 726,021.76 and 724,935.11. Further, in assay [2], the “fluorescent signal in E. coli bearing pThpR, panel of methyltransferases” value is reported as “produced the highest fluorescent signal”.

B2: Gen1: evolved GfOMT1 O-methyltransferase variant, first round of evolution (protein)
chain: MGVSDNKPESQEVDIKAQAHLWNIIYGFADSLVLRCAVEIGIADIIKSNNGSISVTELASKLPITNVNSDNLYRVLRYLVHMGILKEVSDSNEVKLYSLQPVATLLLRDAERSMVPIILGMTQKDFMIPWHFMKEGLGNDTTAFERGMGMTIWQYLEGHPEQSNLFNEGMAGETRLLAKSLIDGCRDTFEGLTSLCDVGGGNGTTIKGIYDAFPQIKCSVYDLPHVIASSPEHPNIERIPGDMFKSVPSAQAILLKLILHDWTDEECVNILIKCREAVPKDTGKVIIVDVALEEESQHELTKTRLILDIDMLVNTGGRERSEDDWEKLLKRAGFRGHKIRHIAAIQSVIEAFP
Turning to B2, in assay [1], the “Observed EIC Areas 3OH (302.1387 m/z)” value is 262,284.74 and 357,195.05 and 194,528.60; the “Observed EIC Areas 1OH (330.1700 m/z)” value turned out to be 0.00; the “Observed EIC Areas NOR-4OH” value is 127,968.53 and 189,597.68 and 69,624.59; the “Observed EIC Areas NRT-2OH” value is 5,028,466.49 and 5,328,381.15 and 4,578,048.19. Moreover, in assay [1], the “Observed EIC Areas THP-0OH” value was 662,206.48 and 685,462.09 and 627,833.84.

B3: Gen4: evolved GfOMT1 O-methyltransferase variant, fourth round of evolution (protein)
chain: MGVSDNKPESQEVDIKAQAHLLNIIYGFADSLVLRCAVEIGIADIIKSNNGSISVTELASKLPITNVNSDNLYRVLRYLVHMGILKEVSDSNEVKLYSLQPVATLLLRDAERSMVPIILGMTQKDFMIPWHFMKEGLGNDTTAFERGMGMTIWQYLEGHPEQSNLFNEGMAGETRLMAKSLIDGCRDTFEGLTSLCDVGGGNGTTIKGIYDAFPQIKCSVYDLPHVIASSPEHPNIERIPGDMFKSVPSAQAILLKLVLHDWTDEECVNILIKCREAVPKDTGKVIIVDVALEEESQHELTKTRLILDIDMLVNTGGRERSEDDWEKLLKRAGFRGHKIRHIAAIQSVIEAFP
With B3, in assay [1], the “Observed EIC Areas 3OH (302.1387 m/z)” value turned out to be 0.00; the “Observed EIC Areas 1OH (330.1700 m/z)” value was 1,994,412.63 and 1,353,523.79 and 2,054,059.80; the “Observed EIC Areas NOR-4OH” value is 242,876.32 and 139,427.97 and 249,690.78; the “Observed EIC Areas NRT-2OH” value was 639,571.41 and 488,824.56 and 684,700.15. Moreover, in assay [1], the “Observed EIC Areas THP-0OH” value was 10,694,641.10 and 11,406,507.42 and 10,304,271.54. For the same molecule, the “THP production, selectivity and efficiency” value in assay [1] (LC/MS, 10 uM NOR, 18 hours at 30 C (FIG. 4d, FIG. 7)) was “produced THP more selectively and efficiently than GEN5”.

B4: Gen2: evolved GfOMT1 variant, second round, in which the W22L mutation occurred (protein)
chain: MGVSDNKPESQEVDIKAQAHLLNIIYGFADSLVLRCAVEIGIADIIKSNNGSISVTELASKLPITNVNSDNLYRVLRYLVHMGILKEVSDSNEVKLYSLQPVATLLLRDAERSMVPIILGMTQKDFMIPWHFMKEGLGNDTTAFERGMGMTIWQYLEGHPEQSNLFNEGMAGETRLLAKSLIDGCRDTFEGLTSLCDVGGGNGTTIKGIYDAFPQIKCSVYDLPHVIASSPEHPNIERIPGDMFKSVPSAQAILLKLILHDWTDEECVNILIKCREAVPKDTGKVIIVDVALEEESQHELTKTRLILDIDMLVNTGGRERSEDDWEKLLKRAGFRGHKIRHIAAIQSVIEAFP
B4: in assay [1], the “Observed EIC Areas 3OH (302.1387 m/z)” value was 730,076.27 and 485,465.06 and 582,826.88; the “Observed EIC Areas 1OH (330.1700 m/z)” value was 4,013,082.04 and 4,748,195.68 and 4,367,581.54; the “Observed EIC Areas NOR-4OH” value is 641,245.71 and 251,793.95 and 457,481.05; the “Observed EIC Areas NRT-2OH” value is 2,721,068.90 and 1,499,029.94 and 2,227,163.03. The “Observed EIC Areas THP-0OH” value in assay [1] was 768,144.56 and 825,357.07 and 796,201.94.

These data come from patent US20240279645A1, “METHODS AND CO[…] TO A MODIFIED METHYLTRANSFERASE” (priority 2021, published 2024).
